According to the supplement of paper PMC9170038:

Tested on: K4 kissing-loop RNA reporter
Experiment: apparent KD of K4 kissing-loop reporter; higher = weaker reporter binding
Details: Eterna round: R107
Experimental: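 RNA-MaP round R107: designed RNA switches with theophylline, tryptophan, arginine or FMN aptamers are transcribed on-chip within common flanks. They are titrated with a labelled K4 kissing-loop RNA reporter in RNA-MaP buffer (100 mM Tris pH 7.5, 80 mM KCl, 4 mM MgCl2), without ligand or with the indicated ligand. Median apparent KD per design.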

[1] = input ligand: theophylline 20 uM
[2] = input ligand: tryptophan 2.4 mM
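Note: bound reporter read as fluorescence of individual clusters on recovered sequencing chips by microscopy, with normalized cluster intensities fitted with a binding model.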

Row | Sequence | apparent KD of K4 kissing-loop reporter (input ligand: FMN 200 uM) [µM] | apparent KD of K4 kissing-loop reporter (input ligand: arginine 13.2 mM) [µM] | apparent KD of K4 kissing-loop reporter (input ligand: none) [µM] | apparent KD of K4 kissing-loop reporter [1] [µM] | apparent KD of K4 kissing-loop reporter [2] [µM]
1 | CUUAUUUCUCGCUAUGAUGUUAGUUGAGCCAAGGAUAUUAAUGAAUUAAGAAGGUGGGUUUUUAAGUGAUGUUUUGAGACUGGCA [theeternabot_exclusion_KL_FMN_A_27] | 0.793 | 0.718 | 0.863 | 0.727 | 0.568
2 | CUUUUACAGUCGGCCGCCACUGACAGCACUUCAAAGACAGUAUAAGGGUAGUGAUGUUACUUUAUCAGGACCGGGACUACCUAAC [theeternabot_sameState_KL_Trp_B_3] | 0.215 | 0.121 | 0.205 | 0.279 | 0.358
3 | GAAAUCACGGAUGAUACCAGCCAGAACUCUCACAGUGAUGUUGUGCUUAAAUGAUUAGGAGGCCCUUGGCAGCAUACGCUAAUUU [theeternabot_sameState_KL_Theo_B_36] | 0.324 | 0.267 | 0.313 | 0.305 | 0.226
4 | GAACGAGUGAUGUUCGUUGGCAUGCAUUCCGAGGAUAUGGGAUUAGCCAGAAGGCGGAAUCAGUCUUCGAGUGAUGUUCGAAGAU [Same State FMN A GF 12] | 0.112 | 0.104 | 0.116 | 0.104 | 0.111
5 | GAAUAAUAACAUGAGUGAUGUUCAUGUAAACGAGGACCGGUACGGCCGCCACUCGUUUCUCAUGUAAGCCGUACCAAUAACAAUA [KL-XTryp-A5 #analogue] | 0.146 | 0.142 | 0.151 | 0.147 | 0.237
6 | GAAUAAUAUGUACCAGUGAUGUUGGUACAACGAGGACCGGUACGGCCGCCACUCGGAUACGAGUGGAUACAUCACUGACCAUUCG [(H1)-(H2)-(Trp1)-(Trp2)-(T)'-(H)'-(T)''_Design9] | 0.326 | 0.308 | 0.368 | 0.413 | 0.252
7 | GAAUGGAGUGAUGUUCCAUUAACGAUCCUACGAGGACCGGUACGGCCGCCACUCGUAUUGCAGUGAUGUUGCAACCAGCCGUACU [Exclusion Tryptophan A GF 9] | 0.111 | 0.113 | 0.114 | 0.111 | 0.102
8 | GACUCAUGUAGAAGGAGCGUCAGAAGCUACAGACAUGAGUGAUGUUCAUGUUAGUUGAUUUGACAGGUAGGUCGCUACAGCAGGA [KL-SSArg B15 #analogue] | 0.28 | 0.207 | 0.247 | 0.283 | 0.229
9 | GACUGGUUAACGAGUGAUGUUCGAUGGGAAGGAGCGCGCAGAAGUGCAGGUAGGUCGCCCUAUAACCAGGAAAUGGCUGGAUUAU [3.)] | 0.205 | 0.224 | 0.205 | 0.252 | 0.145
10 | GAUAUAGUGAUGUUAUAUGGGAAGGAGUUACGAGGACCGGUACGGCCGCCACUCGAAACGAGUGAGGAUUUGGGAGAUUGGGUUU [SSTryptA.R] | 0.369 | 0.386 | 0.376 | 0.488 | 0.235
11 | GAUCUGAACGAAAGUUCGGAUCAGUCCGAUACCAGUAUGGAUUCAUACCCUUGGCAGCGGAAAUCUGCUAUGGAGUGAUGUUCCA [Theophylline A K4 14] | 0.532 | 0.328 | 0.379 | 0.418 | 0.391
12 | GAUGAACUAUUCGAUACCAGACUACAUGAGUGAUGUUCAUGUGUGUCAAUGUCUAUGUCAGUCCCUUGGCAGCGAAUAGUUUAUC [KL-XTheo-B27] | 0.146 | 0.108 | 0.125 | 0.141 | 0.125
13 | GAUUCAGUGAUGUUGGAAGGCGAGCGGGAUACCAGCCAAGACUCAGGCCCUUGGCAGCCCACAUAUCCCACGUAGAUAGUAGCUC [Same State - Theophylline A (Freestyle 13)] | 0.23 | 0.104 | 0.147 | 0.134 | 0.142
14 | GAUUCAGUGAUGUUGGAAGGCGAGCGGGAUACCAGCCAAGACUCAGGCCCUUGGCAGCCCACAUAUCCCAGGUAGAUAGUAGCUC [Same State - Theophylline A (Freestyle 12)] | 0.168 | 0.111 | 0.142 | 0.146 | 0.132
15 | GCAGACACGCAGUGAUGUUGCGAAACGGAAGGAGCGCGUGAAAACGCAGGUAGGUCGCCGACACAUUAAUUAUAAUUUUGUUUGC [Arginine A K4 15] | 0.279 | 0.241 | 0.27 | 0.274 | 0.2
16 | GCAGGACGAGGAGGAGGAUGAAUUACUGAAGGAGCGCAUAUUGUUGCAGGUAGGUCGCGGUAAACAAGUAUAGUGAUGUUAUAUC [SSArgA.O] | 0.77 | 0.27 | 0.877 | 0.695 | 0.416
17 | GCAGGACGAGGAGGAGGAUGAAUUACUGAAGGAGCGCAUAUUUUUGCAGGUAGGUCGCGGUAAACAAGUAUAGUGAUGUUAUAUC [SSArgA.N] | 0.445 | 0.234 | 0.372 | 0.459 | 0.443
18 | GCAGGAUAGCGCGGUGCAGUGAUGUUGCACCGAGGACCGGUACGGCCGCCACUCGCUUAGAUAUCGUGUGAUGGGUAUGUCUAGA [theeternabot_exclusion_KL_Trp_A_8] | 0.116 | 0.11 | 0.123 | 0.094 | 0.119
19 | GCAGUGAUGUUGCGCGAGUACGGUAGAGUACGAGGACCGGUACGGCCGCCACUCGUACGGAACUGGCUAAUUUAUGGAAUGGUGA [III] | 0.254 | 0.227 | 0.295 | 0.27 | 0.193
20 | GCAGUGAUGUUGCGCGGGUACGGUAGAGUACGAGGACCGGUACGGCCGCCACUCGUACGGAACUGGCUAAUUUAUGGAAUGGUGA [IV] | 0.377 | 0.198 | 0.313 | 0.35 | 0.213
21 | GCAUGAUAGUAAGGAUAUAGAUAAUCCUUAUAUAUAUCGAGUGAUGUUCGAUGUGCCAAGGUACAUCUAGAAGGUACUGUAAGGU [Same State FMN B GF 17] | 0.265 | 0.288 | 0.257 | 0.355 | 0.239
22 | GCCAGUGAUGUUGGCGAACCAACGCAUGCAGAGGAUAUUCGUUCUGGAAGAAGGCUGCAGCGUUAUCAAACGCAGUGAUGUUGCG [Same State FMN A GF 26] | 0.179 | 0.134 | 0.15 | 0.165 | 0.129

Row | Sequence | apparent KD of K4 kissing-loop reporter (input ligand: FMN 200 uM) [µM] | apparent KD of K4 kissing-loop reporter (input ligand: arginine 13.2 mM) [µM] | apparent KD of K4 kissing-loop reporter (input ligand: none) [µM] | apparent KD of K4 kissing-loop reporter [1] [µM] | apparent KD of K4 kissing-loop reporter [2] [µM]
23 | GCCGUACGCAUGGAUACCAGACUACCAUUGGAAACAAUGUGUCCGGUAGUGAUGUUACCUGUCCCUUGGCAGCCAUGCGUACGGC | 0.649 | 0.549 | 0.702 | 0.396 | 0.655
24 | GCCGUACGCAUGGAUACCAGUCAAGAUCAGUGAUGUUGAUCUUUUAUAGAGCCUACAUUUGACCCUUGGCAGCCAUGCGUACGGC | 0.378 | 0.32 | 0.33 | 0.465 | 0.247
25 | GCCGUACGCAUGGAUACCAGUCUACAUCGCAGUGAUGUUGCGUAGUUCAGAUAGAUUGCCGACCCUUGGCAGCCAUGCGUACGGC | 0.133 | 0.109 | 0.111 | 0.109 | 0.114
26 | GCCGUACGCAUGGAUACCAGUCUACAUCGCAGUGAUGUUGCGUAGUUCAGAUUAACUGCCGACCCUUGGCAGCCAUGCGUACGGC | 0.134 | 0.111 | 0.127 | 0.118 | 0.12
27 | GCCGUACGCAUGGAUACCAGUCUUUCGCGACUGGACAUGGAGUGAUGUUUCGUGAUGCUAGACCCUUGGCAGCCAUGCGUACGGC | 0.233 | 0.163 | 0.206 | 0.234 | 0.201
28 | GCCGUAGAUCGAAGGAGCGUGUCCAAACCUCAUUCAUGUACACACGAGUGAUGUUCGUGUACACAGGUAGGUCGCGAUCUACGGC [#04 K4 Arginine B Exclusion] | 0.344 | 0.281 | 0.331 | 0.294 | 0.31
29 | GCCGUAGAUGGAAGGAGCGUGCCUUUCAGUUAUAGUGAUGUUAUAACCGAGGAACGGUUGGCACAGGUAGGUCGCCAUCUACGGC | 0.178 | 0.0902 | 0.109 | 0.113 | 0.121
30 | GCCGUAGAUUGAAGGAGCGCUAGUAGUGAUGUUGCUUGCACUUCUUGUGUAAGAAGAACCUAGCAGGUAGGUCGCAAUCUACGGC | 0.7 | 0.27 | 0.728 | 0.703 | 0.499
31 | GCCGUAGAUUGAAGGAGCGUGGAACUAUGGCUUGAACAGUGAUGUUGUUUAUCUAGGUAGCCGCAGGUAGGUCGCAAUCUACGGC | 0.263 | 0.25 | 0.27 | 0.239 | 0.229
32 | GCCGUAGUUGGAAGGAGCGUGAAUGGCCUCUAUCCAAAGUGAUGUUUUGUUGAAGACUGUUCACAGGUAGGUCGCCAACUACGGC [#09 K4 Arginine B Same State] | 0.145 | 0.13 | 0.133 | 0.134 | 0.132
33 | GCGAUUCAGUGAUGUUGGAAAUACAGGGAUACCAGCCGAGAAUAAGGCCCUUGGCAGCUUAAUAGGAAAGAACUAAGUAAGACGC [Theophylline A Same State; Euphoria Solution 2] | 0.574 | 0.569 | 0.877 | 0.616 | 0.402
34 | GCGCGGCUCAGUGAUGUUGAGCCUCGGAAACGAGGACCGGUACGGCCGCCACUCGUCCGCGCAGCUGAGGCAAAAGCCUCGGCUA [Omei KL Tryp A SS B v2] | 0.468 | 0.31 | 0.484 | 0.48 | 0.273
35 | GCGCGUCAUGUCAGCGGUGACACUGUCGAUACCAGCGCCGGAAGGCGCCCUUGGCAGCGACGUGCUGGAGUGAUGUUCCAGCGUG [#2 Exclusion - Theophylline A Attempt #26 (HarryS)] | 0.197 | 0.158 | 0.178 | 0.206 | 0.157
36 | GCGCGUCAUGUCAGCGGUGACUUUGUCGAUACCAGCGCCGCAAGGCGCCCUUGGCAGCGACGCGCUGGAGUGAUGUUCCAGCGUG [#2 Exclusion - Theophylline A Attempt #12 (HarryS)] | 0.135 | 0.126 | 0.134 | 0.154 | 0.126
37 | GCGGGCCCUGGAGGAUAUGAGUCGAGUGAUGUUCGGCGGUCCAUGCCGAUGCGGCGUUAUGCCCUUUUAGAAGGCCAGGGUCCGC [#2 Exclusion - FMN B Attempt #8 (HarryS)] | 0.543 | 0.234 | 0.283 | 0.302 | 0.289
38 | GCUAAGGAGUGAUGUUCCAAGUGAUGUUAACGAGGACCGGUACGGCCGCCACUCGAUACGGCCGGAAAGUAAGAUAAACUACAGC [Same State - Tryptophan A (Freestyle 5)] | 0.0986 | 0.0726 | 0.0932 | 0.0893 | 0.0828
39 | GCUAUGGUAGGAAGGAGCGCGGACGGUAUUUGUCGAGUGAUGUUCGAUUCUUUAAUUUGAACGCAGGUAGGUCGCCUACUAUAGC [Arginine B K4 30] | 0.214 | 0.183 | 0.226 | 0.258 | 0.221
40 | GCUAUGGUAGGAAGGAGCGCUUACUCGGUAAUAAGAGUGAUGUUCGAUACCGAGUAUUUAUAGCAGGUAGGUCGCCUACUAUAGC [Arginine B K4 5] | 0.238 | 0.209 | 0.195 | 0.253 | 0.227
41 | GCUGAGGAGUGAUGUUCCAAGUGAUGUUAACGAGGACCGGUACGGCCGCCACUCGAUACGGCCGGACCGUAAGAUAAACUACAGC [Same State - Tryptophan A (Freestyle 7)] | 0.316 | 0.281 | 0.288 | 0.409 | 0.315
42 | GGAAAUUGAUCAACGCAGUGAUGUUGCGAUACCAGACACAAAGCCGUCCCUUGGCAGCGCGGGACAUUAAUGGAUCUAUGGGUUC [theeternabot_exclusion_KL_Theo_A_26] | 0.0685 | 0.113 | 0.0682 | 0.119 | 0.0668
43 | GGACCACCAGUGAUGUUGGAGAUAAACUCCAAGGAUAUGACGAAAGUCAGAAGGUGGUAAUAAGACGUCAAAGACGUCAGGUCCA [FmnA 20 #SwitchBubble #K4Early] | 0.372 | 0.116 | 0.187 | 0.209 | 0.178
